According to US20230104578A1, “ANTI-ADRENOMEDULLIN (ADM) ANTIBODY OR ANTI-ADM ANTIBODY FRAGMENT OR ANTI-ADM NON-IG SCAFFOLD FOR USE IN THERAPY OR PREVENTION OF SHOCK” (ADRENOMED AG, priority 2020, published 2023):

Tests used:
[1] = molecular target: human recombinant adrenomedullin receptor (CRLR+RAMP3) (human)
[2] = molecular target: human recombinant adrenomedullin receptor (CRLR+RAMP3) (human); remark: listed apart in the source

- IC50 (read off the curve); cAMP (HTRF) induced by 0.67 nM mADM, % inhibition [1]: 3000 nM
- IC50 (read off the curve); cAMP (HTRF) induced by 5.63 nM hADM, % inhibition [2]: 300 nM
Substance: human ADM 22-52 (peptide)
